One experiment deals with T1, human ASCL1 (human, UniProt P50553 1-236, limits assumed).
T1 construct: Transcription factor; also called hASCL1; immobilized human ASCL1
T1 sequence (looked up): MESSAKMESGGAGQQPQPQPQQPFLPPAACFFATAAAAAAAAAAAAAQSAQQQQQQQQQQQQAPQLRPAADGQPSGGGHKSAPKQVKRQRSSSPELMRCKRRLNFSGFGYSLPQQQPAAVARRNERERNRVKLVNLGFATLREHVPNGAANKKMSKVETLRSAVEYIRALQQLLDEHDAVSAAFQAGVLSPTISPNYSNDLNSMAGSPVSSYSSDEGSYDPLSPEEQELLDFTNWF
The experiment in a line: screen on immobilized hASCL1 or h293-hASCL1 cells.

For experiment [1], the target named is T2, hASCL1 in 293 cells engineered to express ASCL1 (293-ASCL1) (human, UniProt P50553 1-236).
T2 construct: whole, on cells; also called DDDK-tagged hASCL1 from pLMEGPA-hASCL1-NFlag
T2 sequence (looked up): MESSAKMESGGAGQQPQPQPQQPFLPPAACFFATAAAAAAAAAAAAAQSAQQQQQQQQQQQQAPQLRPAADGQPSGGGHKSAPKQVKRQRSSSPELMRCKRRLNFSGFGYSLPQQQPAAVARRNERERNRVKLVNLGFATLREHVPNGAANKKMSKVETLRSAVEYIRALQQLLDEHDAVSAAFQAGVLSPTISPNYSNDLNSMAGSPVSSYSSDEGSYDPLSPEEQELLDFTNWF
Nature of the experiment: immunohistochemistry on FFPE sections, antibody at 10 ug/ml. Here is the method: IHC was performed essentially as follows. Planar sections of formalin fixed and paraffin embedded (FFPE) tissues were cut and mounted on glass microscope slides. After xylene de-paraffinization 5 μm sections were pre-treated with Antigen Retrieval Solution (Dako) for 20 mins. at 99° C., cooled to 75° C. and then treated with 0.3% hydrogen peroxide in PBS followed by Avidin/Biotin Blocking Solution (Vector Laboratories). FFPE slides were then blocked with 10% horse serum in 3% BSA in PBS buffer and incubated with a primary anti-ASCL1 antibody (clone SC72.2), diluted to 10 μg/ml in 3% BSA/PBS, for 30 mins. at room temperature. The FFPE slides were incubated with biotin-conjugated horse anti-mouse antibody (Vector Laboratories), diluted to 2.5 μg/ml in 3% BSA/PBS, for 30 mins. at room temperature followed by incubation in streptavidin-HRP (ABC Elite Kit; Vector Laboratories). Chromogenic detection was developed with 3,3′-diaminobenzidine (Thermo Scientific) for 5 mins. at room temperature and tissues were counterstained with Meyer's hematoxylin (IHC World), washed with alcohol and immersed in xylene. Sections were then viewed by brightfield microscopy and ASCL1 expression was noted.
PDX tumors were stained by IHC (FIG. 12) and ASCL1 protein expression by IHC correlates with the expected ASCL1 mRNA expression based on microarray results.

For experiment [2], the target named is T3, DLL3 extracellular domain (amino acids 27-466) (human, UniProt Q9NYJ7 27-466).
T3 construct: also called DLL3 ECD; wild type DLL3 ECD
T3 sequence: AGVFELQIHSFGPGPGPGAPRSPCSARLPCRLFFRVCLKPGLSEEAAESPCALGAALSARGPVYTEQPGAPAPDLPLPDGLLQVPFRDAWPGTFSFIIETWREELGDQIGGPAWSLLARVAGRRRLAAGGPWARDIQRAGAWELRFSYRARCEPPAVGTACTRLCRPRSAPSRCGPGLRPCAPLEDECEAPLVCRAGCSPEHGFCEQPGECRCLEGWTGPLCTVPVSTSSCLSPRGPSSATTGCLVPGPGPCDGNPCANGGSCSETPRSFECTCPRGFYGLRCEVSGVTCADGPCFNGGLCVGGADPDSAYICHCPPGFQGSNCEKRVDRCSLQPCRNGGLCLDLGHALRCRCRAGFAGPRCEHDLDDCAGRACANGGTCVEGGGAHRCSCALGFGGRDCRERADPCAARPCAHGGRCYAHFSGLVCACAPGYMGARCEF
Nature of the experiment: fine epitope mapping (phage display peptides or yeast display of DLL3 ECD mutants). Here is the method:
Fine epitope mapping was further performed on selected antibodies using one of two methods. The first method employed the Ph.D.-12 phage display peptide library kit (New England Biolabs) which was used in accordance with the manufacturer's instructions. The antibody for epitope mapping was coated overnight at 50 μg/mL in 3 mL 0.1 M sodium bicarbonate solution, pH 8, onto a Nunc MaxiSorp tube (Nunc). The tube was blocked with 3% BSA solution in bicarbonate solution. Then, […] input phage in PBS+0.1% Tween-20 was allowed to bind, followed by ten consecutive washes with 0.1% Tween-20 to wash away non-binding phage. Remaining phage were eluted with 1 mL 0.2 M glycine for 10 minutes at room temperature with gentle agitation, followed by neutralization with 150 μL 1M Tris-HCl pH 9. Eluted phage were amplified and panned again with 10¹¹ input phage, using 0.5% Tween-20 during the wash steps to increase selection stringency. DNA from 24 plaques of the eluted phage from the second round was isolated using the Qiaprep M13 Spin kit (Qiagen) and sequenced. Binding of clonal phage was confirmed using an ELISA assay, where the mapped antibody or a control antibody was coated onto an ELISA plate, blocked, and exposed to each phage clone. Phage binding was detected using horseradish peroxidase conjugated anti-M13 antibody (GE Healthcare), and the 1-Step Turbo TMB ELISA solution (Pierce). Phage peptide sequences from specifically binding phage were aligned using Vector NTI (Life Technologies) against the antigen ECD peptide sequence to determine the epitope of binding.
Alternatively, a yeast display method (Chao et al., 2007, PMID: 17406305) was used to map the epitopes of selected antibodies. Libraries of DLL3 ECD mutants were generated with error prone PCR using nucleotide analogues 8-oxo-2′deoxyguanosine-5′-triphosphate and 2′-deoxy-p-nucleoside-5′triphosphate (TriLink Bio) for a target mutagenesis rate of one amino acid mutation per clone. These were transformed into a yeast display format. […]

The target of a further experiment is T4, human DLL3 (human, UniProt Q9NYJ7 27-492, limits assumed).
T4 construct: also called hDLL3; DLL3 protein
T4 sequence: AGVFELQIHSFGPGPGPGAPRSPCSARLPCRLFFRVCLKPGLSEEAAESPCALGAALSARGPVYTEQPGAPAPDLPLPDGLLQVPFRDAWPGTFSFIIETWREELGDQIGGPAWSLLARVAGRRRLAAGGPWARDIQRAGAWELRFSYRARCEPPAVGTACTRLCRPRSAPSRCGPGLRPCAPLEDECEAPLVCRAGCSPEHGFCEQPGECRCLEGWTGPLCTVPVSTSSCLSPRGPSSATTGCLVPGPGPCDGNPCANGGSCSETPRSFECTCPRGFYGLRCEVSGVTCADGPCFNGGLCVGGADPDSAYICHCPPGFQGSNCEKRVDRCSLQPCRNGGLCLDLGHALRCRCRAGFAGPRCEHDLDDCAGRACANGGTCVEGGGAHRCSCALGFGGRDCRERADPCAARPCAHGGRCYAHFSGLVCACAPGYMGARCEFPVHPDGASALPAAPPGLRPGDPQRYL
The experiment in a line: screen on immobilized hDLL3 or h293-hDLL3 cells. A digest of the protocol:
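Hybridoma supernatants from single cells of mice immunized with human DLL3 were screened after 10 days in culture. Binding by flow cytometry was scored positive when above the control. In the solid-phase ELISA, plates coated with DLL3-His at 0.5 μg/ml were probed with HRP anti-mouse IgG and TMB and read at OD 450.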

B1: SC72.2 (antibody, V domains shown)
VH: QVQLQQSGAELVRPGASVTLSCKASGYTFIDYEMHWVKQTPVHGLEWIGAIDPETGGTTYNQNFKGKATLTADKSSNTAYMELRSLTSGDSAVYYCSRGGLDYWGQGTTLTVSS
VL: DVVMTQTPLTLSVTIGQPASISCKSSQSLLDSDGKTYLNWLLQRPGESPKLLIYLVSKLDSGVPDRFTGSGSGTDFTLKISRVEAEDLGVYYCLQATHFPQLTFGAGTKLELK
notes: murine mAb; also called anti-ASCL1 antibody clone SC72.2
Turning to B1, the binding result (with human ASCL1; in experiment [1]) was “binds” each time.

B2: SC16.34 (antibody, V domains shown)
VH: QIQLVQSGPELKRPGETVKISCKASGYTFTNYGMNWVKQAPGKGLKWMGWINTYTGDPTYADDFKGRFAFSLETSASTAYLQINNLKNEDTATYFCARIGGNSPSDYWGQGTSLTVSS
VL: SIVMTQTPKFLLVSAGDRVTITCKASQSVSNDVAWYQQKPGQSPKLLIYYASNRYSGVPDRFTGSGYGTDFTFTISTVQAEDLAVYFCQQDYSSPWTFGGGTKLEIK
notes: murine mAb
For B2, the binding result (in experiment [2]; with human DLL3) was “binds” each time.

B3: SC16.56 (antibody, V domains shown)
VH: QIQLVQSGPELKKPGETVKISCKASGYTFTNYGMNWVKQAPGKGLKWMAWINTYTGEPTYADDFKGRFAFSLETSASTASLQIINLKNEDTATYFCARIGDSSPSDYWGQGTTLTVSS
VL: SIVMTQTPKFLLVSAGDRVTITCKASQSVSNDVVWYQQKPGQSPKLLIYYASNRYTGVPDRFAGSGYGTDFSFTISTVQAEDLAVYFCQQDYTSPWTFGGGTKLEIR
notes: murine mAb
With B3, the binding result (in experiment [2]; in the experiment with human DLL3) was “binds” in each case.

Source of the values: patent US20190201542A1 (AbbVie / Abbott, published 2019).
